The nature of this data set: protein stability index of a GFP-peptide fusion (GPS, HEK-293T) (PSI 1-6); higher = more stable.
Setting [1] is: treatment: DMSO, c terminus: a fixed tail appended.
Where [2] appears, read: treatment: MLN4924 1 uM, 8 h, c terminus: a fixed tail appended.
[3] abbreviates: treatment: DMSO, c terminus: native.
[4] abbreviates: treatment: MLN4924 1 uM, 8 h, c terminus: native.

± gives the standard deviation.
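Further: 24-mer peptide tiles fused after GFP, lentivirally expressed, FACS-sorted into six equal bins by GFP/DsRed ratio, decoded by Illumina sequencing, PSI is the read-weighted mean bin number.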

MELPSGPGPERLFDSHRLPGDCFL [AUP1]: the protein stability index reads like this: under setting [1], 3.36 ± 0.36; under setting [2], 3.27 ± 0.35.
For MENLLQATKSHVDKVIMKLGKTNA [DYNC2LI1], in that order: 3.24 ± 0.28 and 3.34 ± 0.38.
As for MEPGGARLRLQRTGGLGGERERQP [SOAT2], the protein stability index under setting [1] stood at 4.58 ± 0.12 and the protein stability index under setting [2] is 4.65 ± 0.21.
MEREFNNLLALGTDRKLDDGDDKV [PPFIA4] yielded a protein stability index under setting [1] of 5.47 ± 0.32 and a protein stability index under setting [2] of 5.34 ± 0.58.
Sequence MGREKCHQYWPAERSARYQYFVVD [PTPRD] registered a protein stability index under setting [1] of 2.3 ± 0.34 and a protein stability index under setting [2] of 2.33 ± 0.14.
Consider MIAFFFIIIYLGPMVLMIIVMCVQ [CDS2], for which the protein stability index stood at 3.3 ± 0.31 under setting [1] and 3.12 ± 0.93 under setting [2].
With MIIEHKIVIADVKLVADFQRYILY [ZNF277], the protein stability index runs as follows: under setting [1], 3.58 ± 0.73; under setting [2], 2.74 ± 1.1.
For MKSYSFLREAVPGILRARRGEGIQ [SOAT2], in that order: 2.54 ± 0.2 and 2.77 ± 0.39.
As to MLQEQLDAINEEIRMIQEEKESTE [PPFIA4], the protein stability index is 4.75 ± 0.41 under setting [1] and 4.84 ± 0.11 under setting [2].
With MNQTCCPQYTIRCRPLQFQPSKSH [ATE1], the protein stability index runs as follows: under setting [1], 2.06 ± 0.27; under setting [2], 2.1 ± 0.25.
MPCTWVMACAYAPSGCAIACGGLD [GNB5]: the protein stability index is, setting by setting: under setting [1], 2.77 ± 0.53; under setting [2], 2.88 ± 0.4.
As for MPEERASKYENYFSASERLSLKRE [HESX1], the protein stability index runs as follows: under setting [1], 4.41 ± 0.51; under setting [2], 4.75 ± 0.31.
With MPSETLWEIAKAEVEKRGINGSEG [DYNC2LI1], the protein stability index under setting [1] was 4.88 ± 0.15 and the protein stability index under setting [2] was determined as 5.1 ± 0.1.
For MPTGPPEDRLSLKFLPSSEEDNDD [DRICH1], in that order: 5.47 ± 0.2 and 5.59 ± 0.15.
The sequence MSERLRPRKRRRNGNEEDNHLPPQ [FAM104A] returned a protein stability index under setting [1] of 5.3 ± 0.14 and a protein stability index under setting [2] of 5.39 ± 0.14.
For MSRSGDRTSTFDPSHSDNLLHGLN [KLHL14], in that order: 4.13 ± 0.24 and 4.09 ± 0.26.
For the sequence MSYFGEHFWGEKNHGFEVLYHSVK [FCHO1], the protein stability index came out at 2.59 ± 0.24 under setting [1] and 2.11 ± 0.16 under setting [2].
For NAESSKTWLKGKFTELRLLLDEEE [TRIM14], in that order: 4.14 ± 0.34 and 4.41 ± 0.47.
Consider NAGISFSVKKQGETVADVRTLPNA [MLH1], for which the protein stability index was 4.37 ± 0.46 under setting [1] and 4.11 ± 0.1 under setting [2].
For NCSDFLESKGCFANTTPSGKSVSS [SPATS1], in that order: 4.15 ± 0.2 and 4.35 ± 0.17.
For NDDSADYQHFLQDCVDGLFKEVKE [DLC1], in that order: 2.96 ± 0.5 and 3.54 ± 0.62.
With NGLTLLILGVIGLFTIPLLYRQHQ [RTN2], the protein stability index came out at 3.39 ± 0.37 under setting [1] and 2.93 ± 0.71 under setting [2].
In the case of NGVNVLDEPYEKVVDRIQSSGKNV [PDZK1], the protein stability index under setting [1] came out at 5.03 ± 0.3.
As to NHAPLREQGAIPRLVQLLVRAHQD [CTNNB1], the protein stability index under setting [1] stood at 2.91 ± 0.23 and the protein stability index under setting [2] came out at 2.91 ± 0.19.
For NIQIIEYEKKQTLGQNDTGFSCDG [BTBD1], in that order: 4.36 ± 0.4 and 4.034 ± 0.016.
On to NKHLTTHQGIKPYKCSWCGKSFSQ [ZNF75A], for which the protein stability index under setting [1] worked out at 2.35 ± 0.45 and the protein stability index under setting [2] was 2.06 ± 0.37.
For NKKNILLRLLREEEYVAPPRGPLP [TRAF3IP2], in that order: 2.44 ± 0.25 and 3.06 ± 0.54.
For NKRCKDKKKSILMKQLQQQQHSDK [ISL2], in that order: 4.45 ± 0.18 and 4.5 ± 0.12.
As for NLANCERLIEVEDMMVMGRKPDPM [SMTNL2], the protein stability index is, setting by setting: under setting [1], 3.36 ± 0.25; under setting [2], 3.48 ± 0.31.
For NLISLLALRVLAEQNIIPSATNVT [TENT5C], in that order: 2.94 ± 0.39 and 3.12 ± 0.36.
For NLKQLRKRGSIPTSLTALSLASAS [PPFIA4], in that order: 3 ± 0.15 and 3.09 ± 0.24.
For NLLQPNFEAAFGTTPSTSSSSSFD [SNAP91], in that order: 4.11 ± 0.093 and 4.08 ± 0.046.
NLQELLELDSSSSLCVLVSTVGKL [CEP70]: the protein stability index stood at 2.29 ± 0.49 under setting [1] and 2.43 ± 0.47 under setting [2].
For NQLQYMQNVVVKTLWKHQFAWPFY [BRD3], in that order: 3.03 ± 0.46 and 2.64 ± 0.36.
Turning to NSQVHRETEDVDYGETDFHKQDGK [TMEM40], the protein stability index reads like this: under setting [1], 5.54 ± 0.12; under setting [2], 5.52 ± 0.17.
For NSTQADEGKTKKGVLEAPDTQVNP [FBXO34], in that order: 5.49 ± 0.19 and 5.41 ± 0.18.
For NVEHYQELKKMVQQSDLGQYVTFL [ALG2], in that order: 2.27 ± 0.12 and 2.43 ± 0.27.
For NVLSDLYAMGITECDNMLMLLSVS [SEPHS2], in that order: 2.93 ± 0.55 and 2.71 ± 0.42.
As for NWGQDPGVSANASKAWHQKSHFQN [PBXIP1], the protein stability index is 2.94 ± 0.5 under setting [1] and 3.43 ± 0.32 under setting [2].
For PALAPVPRNSCITCPQCHRSLILD [TRIM9], in that order: 3.31 ± 0.3 and 3.37 ± 0.33.
For PANTQINDIRIFLEKVLEENAQKK [VPS39], in that order: 3.73 ± 0.22 and 3.61 ± 0.36.
For PARAGSEVEWTEDLALDLGPQSRE [C2CD2L], in that order: 5.24 ± 0.23 and 5.31 ± 0.23.
As for PASPNPFVHELHLSRLQRVKFCLL [LPCAT4], the protein stability index turned out to be 2.56 ± 0.6 under setting [1] and 2.51 ± 0.3 under setting [2].
As for PATHLSPALAPVPRNSCITCPQCH [TRIM9], the protein stability index runs as follows: under setting [1], 3.82 ± 0.39; under setting [2], 3.87 ± 0.23.
Turning to PDAETLKVMKQPRCGVPDVAQFVL [MMP1], the protein stability index runs as follows: under setting [1], 2.4 ± 0.3; under setting [2], 2.31 ± 0.27.
Regarding PDMSVTKVVVHKETEITPEDGED [EPB41L3], the protein stability index under setting [3] is 5.5 ± 0.35 and the protein stability index under setting [4] came to 5.57 ± 0.29.
For PDPTPPEPEEEILGSDDEEQEDPA [SRPK2], the protein stability index runs as follows: under setting [1], 5.62 ± 0.33; under setting [2], 5.53 ± 0.21.
Turning to PDTAPPSERPLEDLRLRLDHLGWV [RTN2], the protein stability index came out at 3.39 ± 0.44 under setting [1] and 3.24 ± 0.38 under setting [2].
For PEADCIPKEQLSTSFQWVTKWVDY [PLK2], in that order: 3.01 ± 0.34 and 2.8 ± 0.48.
For PEGIQKVAKCLIGVNYPKPMVNHA [CRY1], in that order: 2.46 ± 0.18 and 2.87 ± 0.23.
Consider PEPPPVSFQPYHPLHFRGSNGMS [TENT5D], for which the protein stability index is 3.77 ± 0.29 under setting [3] and 3.91 ± 0.22 under setting [4].
Take PETAHPNLVLSEDRKSVKFVETRL [TRIM39]: the protein stability index was determined as 4.04 ± 0.45 under setting [1] and 4.15 ± 0.16 under setting [2].
For PFNGDCRITKDNRRHCQACRLKRC [VDR], in that order: 3.19 ± 0.3 and 3.4 ± 0.34.
On to PFPAGPLAVAGGPRKTAAPVNALV [ESRRA], for which the protein stability index by setting is: under setting [1], 3.7 ± 0.34; under setting [2], 3.61 ± 0.31.
On to PGARTRAGAARVARWRRLRLQQLR [FBXO33], for which the protein stability index by setting is: under setting [1], 4.12 ± 0.28; under setting [2], 4.51 ± 0.26.
Consider PGEVVPSGESGLRRRGSDPASGEV [TMEM40], for which the protein stability index under setting [1] turned out to be 5.52 ± 0.32 and the protein stability index under setting [2] stood at 5.43 ± 0.23.
As for PGPKGDPGEKSHWGEGLHQLREAL [EMID1], the protein stability index reads like this: under setting [1], 3.32 ± 0.13; under setting [2], 3.46 ± 0.52.
For PGSQALPAPALAPDQLPQNNTLVA [FBXO28], in that order: 4.74 ± 0.35 and 4.88 ± 0.37.
As for PHHHSFYDFIVTKARGKSGPLFNF [FAM50A], the protein stability index came out at 2.29 ± 0.29 under setting [1] and 2.22 ± 0.16 under setting [2].
For PHMAEQTFEQAIQAASRIIRNEQF [CDC25B], the protein stability index worked out at 3.1 ± 0.29 under setting [1] and 3.39 ± 0.17 under setting [2].
For PICVQIPWDKNPEALAKWAEGRTG [CRY1], in that order: 3.51 ± 0.35 and 3.6 ± 0.24.
With PKAERLRWSPAQEESFRQMVVIHK [ZNF232], the protein stability index amounted to 3.19 ± 0.31 under setting [1] and 3.25 ± 0.37 under setting [2].
For PKGWRQLAQEAEAWLNYPCFKNWD [OAS1], in that order: 2.72 ± 0.23 and 2.82 ± 0.18.
Take PKPSVLFLHPDLGVGGAERLVLDA [ALG2]: the protein stability index is, setting by setting: under setting [1], 3.23 ± 0.29; under setting [2], 3.15 ± 0.23.
PLAQNERCLHMFLQDEIIDKSYTP [SNX3]: the protein stability index under setting [1] is 2.97 ± 0.24 and the protein stability index under setting [2] came out at 3.39 ± 0.22.
For PLCMAVLTTASIIQLGVTPPGYSA [SLC6A17], in that order: 3.14 ± 0.94 and 2.94 ± 0.4.
For PLFTPQSPVTATLSDEDDGFVDLL [CDC25A], in that order: 4.65 ± 0.13 and 4.43 ± 0.38.
Consider PLLPSDLRRTGCAALRIANCKLFR [GAN], for which the protein stability index was found to be 2.29 ± 0.34 under setting [1] and 2.35 ± 0.24 under setting [2].
For PLNCAPCPRRSEPVVQCQYPSGAE [IRX6], in that order: 3.93 ± 0.14 and 3.94 ± 0.12.
For PLPWSECPVVRNGSVAVVEAECEK [SLC6A17], in that order: 5.443 ± 0.034 and 5.3 ± 0.29.
For PLSAVYRICLGKFTFPGMSLDKRQ [TPRG1], in that order: 2.23 ± 0.46 and 2.24 ± 0.22.
For PLYLLTWKIAPAMAAGNTVIAKPS [ALDH8A1], the protein stability index was found to be 2.04 ± 0.52 under setting [1] and 2.11 ± 0.4 under setting [2].

The values are drawn from the supplement of paper PMC10567573.
